# Ends that are not written are not given here.
# Biological target: T1, fibrin in tumor, Neuro 2A neuroblastoma (Mus musculus, UniProt E9PV24+Q8K0E8+Q8VCM7)
# T1 construct: from tissue; host or cells: tumor stroma of living mice (BALB-neuT mammary tumor, TRAMP prostate tumor, Neuro-2a neuroblastoma in A/J mice)
# T1 sequence (E9PV24 20-557 isoform E9PV24-2 limits assumed): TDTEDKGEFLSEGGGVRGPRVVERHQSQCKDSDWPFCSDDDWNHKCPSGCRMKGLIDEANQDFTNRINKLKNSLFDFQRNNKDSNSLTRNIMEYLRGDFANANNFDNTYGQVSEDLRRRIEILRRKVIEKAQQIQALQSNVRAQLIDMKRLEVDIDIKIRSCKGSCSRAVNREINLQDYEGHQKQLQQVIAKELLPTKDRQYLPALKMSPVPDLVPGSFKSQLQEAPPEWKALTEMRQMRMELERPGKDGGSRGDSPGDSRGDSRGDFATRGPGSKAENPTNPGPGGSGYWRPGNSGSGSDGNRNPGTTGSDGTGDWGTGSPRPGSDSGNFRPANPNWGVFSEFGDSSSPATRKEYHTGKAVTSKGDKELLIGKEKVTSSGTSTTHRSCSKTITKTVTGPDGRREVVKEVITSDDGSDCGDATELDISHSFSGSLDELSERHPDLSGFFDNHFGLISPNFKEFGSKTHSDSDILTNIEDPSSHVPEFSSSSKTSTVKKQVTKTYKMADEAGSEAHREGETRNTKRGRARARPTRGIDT
# T1 sequence (Q8K0E8 35-481 limits assumed): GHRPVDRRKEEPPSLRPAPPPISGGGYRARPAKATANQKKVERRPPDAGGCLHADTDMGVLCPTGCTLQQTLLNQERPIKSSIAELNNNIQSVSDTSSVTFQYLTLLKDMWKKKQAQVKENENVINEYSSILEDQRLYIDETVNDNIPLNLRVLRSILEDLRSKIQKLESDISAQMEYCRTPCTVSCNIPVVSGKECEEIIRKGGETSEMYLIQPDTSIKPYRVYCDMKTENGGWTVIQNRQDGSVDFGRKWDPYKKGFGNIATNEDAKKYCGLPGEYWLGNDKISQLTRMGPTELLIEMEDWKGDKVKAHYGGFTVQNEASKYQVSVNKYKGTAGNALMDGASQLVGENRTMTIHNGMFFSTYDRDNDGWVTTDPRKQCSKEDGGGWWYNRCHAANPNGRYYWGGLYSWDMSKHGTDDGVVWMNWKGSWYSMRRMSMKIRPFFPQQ
# T1 sequence (Q8VCM7 26-436): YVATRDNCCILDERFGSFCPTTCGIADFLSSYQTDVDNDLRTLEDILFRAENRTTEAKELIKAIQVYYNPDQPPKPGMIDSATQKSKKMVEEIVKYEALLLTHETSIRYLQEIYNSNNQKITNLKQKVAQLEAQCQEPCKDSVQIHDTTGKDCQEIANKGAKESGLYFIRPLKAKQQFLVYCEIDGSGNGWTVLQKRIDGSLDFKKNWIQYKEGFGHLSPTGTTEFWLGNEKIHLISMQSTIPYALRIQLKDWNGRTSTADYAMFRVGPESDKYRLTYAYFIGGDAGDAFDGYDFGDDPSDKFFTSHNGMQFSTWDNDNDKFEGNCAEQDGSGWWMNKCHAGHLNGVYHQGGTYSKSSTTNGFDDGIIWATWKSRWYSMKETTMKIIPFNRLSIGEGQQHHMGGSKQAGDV
# Experiment: In vivo MRI, neuroblastoma tumor induced by Neuro 2A cells, Example 18
# Details: 25 μmol/kg of complex, 4 h post injection, 2T
# Protocol: This test has been performed on mice with neuroblastoma tumor induced by inoculation of 2.10^6 Neuro 2A cells.
# Two groups of 5 mice each inoculated were formed to test the Reference compound 2 and the Chelate complex 1.
# At day-10 post tumor cells inoculation, mice with similar tumor size (5-10 mm in diameter) were selected for the in vivo MRI tests. Before and post contrast administration, T1 and T2 high resolution 2D spin-echo and 3D gradient echo images were acquired. MRI was performed at 4 h and 24 h post injection. The maximum signal intensity was measured in the entire tumor area and in each image post contrast covering the whole tumor and compared to the pre-contrast images. At the end of MRI exams, all animals were sacrificed and the tumor, blood, liver, kidneys and femoral bone were removed and prepared for Gd assay by ICP. […]
# The signal intensity was measured within a region of interest (ROI) including the entire tumor, drawn by an operator on each MR image using a dedicated software (MR Research Systems Ltd, Surrey UK). Signal intensity enhancement (Enh %) was determined as: Enh %=100*(SIx(t)−SI0)/SI0 where SI0 and SIx(t) were the signal intensity of tumor pre and post injection of the contrast agent (test articles or reference), respectively.
substance,measurement,setting,value
"Chelate Complex 1: Gd chelate (four DTPA-Glu) conjugated via linker to fibrin-binding peptide SEQ ID NO:001 (WQPCPAESWTFCWDPGGGK; cysteine pairing not given here; also: Gd chelate (four DTPA-Glu) conjugated via linker, site not given here, metal complex: Gd)","Tumor signal enhancement (T1 weighted MRI), in words",,high signal enhancement inside tumor
same,"Tumor signal enhancement (T1 weighted MRI), in words",listed as chelate complex 1,significant tumor signal enhancement

# From patent US9333272B2, “Fibrin binding peptide conjugates for diagnostic and therapeutic applications” (Bracco Imaging SpA, priority 2006, dated 2016)
